Assay results published in patent publication US8450464 (Bristol-Myers Squibb, dated 2013).

How the values were obtained:
[1] = target: T1, human CXCR4 (human, UniProt P61073 1-352); assay: competition flow cytometry on CEM cells: unlabeled antibody titrated against a constant concentration of FITC-labeled F9, fluorescent geometric mean; unit from the axis 'Ab Concentration in nM'
[2] = target: T1, human CXCR4; assay: flow cytometry titration on CEM cells (native human CXCR4), FITC anti-human IgG secondary, MFI; unit from the axis 'Conc in nM'
Method: (§1) The antibodies were then mixed with CEM cells and allowed to bind before being detected with a FITC-conjugated anti-human IgG secondary antibody. The cells were then analyzed by fluorescent cytometry.

[3] = target: T1, human CXCR4; assay: radioligand competition on CEM cells; competitor 100 pM 125I-SDF-1
Method: The anti-CXCR4 antibodies were serially diluted 1:3 to yield a range of concentrations from 300 nM to 137 pM. […] An irrelevant antibody of the same isotype was used as a negative control.

[4] = target: T1, human CXCR4; assay: cell-based or functional assay
[5] = target: T1, human CXCR4; assay: flow cytometry on CEM cells, FITC anti-human IgG detection
Method: as §1

[6] = target: T1, human CXCR4; assay: competition flow cytometry on CEM cells: unlabeled antibody titrated against a constant concentration of FITC-labeled F9, fluorescent geometric mean; unit from the axis 'Ab Concentration in nM'; the fitted value lies above the highest concentration shown (about 300 nM), inhibition is only partial
Method: To determine the ability of a panel of anti-CXCR4 antibodies to compete for binding to CXCR4, competition studies were performed. […] The mixture of antibodies was then added to CEM cells and allowed to bind.

[7] = target: T1, human CXCR4; assay: flow cytometry titration on CEM cells (native human CXCR4), FITC anti-human IgG secondary, MFI; unit from the axis 'Conc in nM'; the curve is still rising at the highest concentration, no upper plateau
Method: as §1

T1 sequence (P61073 whole entry): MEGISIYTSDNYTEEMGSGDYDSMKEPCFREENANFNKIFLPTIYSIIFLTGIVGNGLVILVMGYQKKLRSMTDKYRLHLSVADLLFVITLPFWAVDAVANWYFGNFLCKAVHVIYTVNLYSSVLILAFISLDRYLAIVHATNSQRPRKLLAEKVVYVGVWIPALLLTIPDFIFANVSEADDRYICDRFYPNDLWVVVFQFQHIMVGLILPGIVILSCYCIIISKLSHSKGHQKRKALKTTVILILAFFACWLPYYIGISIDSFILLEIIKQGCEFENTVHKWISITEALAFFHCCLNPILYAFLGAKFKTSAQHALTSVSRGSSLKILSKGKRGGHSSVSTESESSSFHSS

## murine monoclonal anti-CXCR4 antibody 12G5
[1]
  EC50: 102 nM

B1: anti-CXCR4 human monoclonal antibody D1 (antibody, V domains shown)
VH: EVQLVQSGGGLVQPGGSLRLSCAAAGFTFSSYSMNWVRQAPGKGLEWVSYISSRSKTIYYADSVKGRFTISRDNARNSLYLQMNSLRDEDTAVYYCARDYGGQPPYYYYYGMDVWGQGTTVTVSS
VL: VIWVTQSPSSLSASVGDRVTITCRTSQGISSWLAWYQQKPEKAPELLIYAASSLQSGVPSRFSGSGSGTDFTLTISSLQPEDFATYYCQQYNSYPRTFGQGTKVEIK
notes: Tested as full-length antibody
[2]
  EC50: 79.9 nM
[1]
  EC50: 59.2 nM
[3]
  EC50: 28.6 nM
[4]
  EC50 for inhibition of SDF-1-induced calcium flux in CEM cells: 0.57 nM
[5]
  EC50: 80 nM

B2: anti-CXCR4 human monoclonal antibody E2 (antibody, V domains shown)
VH: EVQLVQSGGGLVQPGGSLRLSCAAAGFTFSSYSMNWVRQAPGKGLEWVSYISSRSRTIYYADSVKGRFTISRDNAKNSLYLQMNSLRDEDTAVYYCARDYGGQPPYHYYYGMDVWGQGTTVTVSS
VL: EIVLTQSPSSLSASVGDRVTITCRASQGISNWLAWYQQKPEKAPKSLIYAASSLQSGVPSRFSGSGSGTDFTLTISSLQPEDFATYYCQQYNSYPRTFGQGTKVEIK
notes: as for B1
[6]
  EC50: 469 nM
[7]
  EC50: 290 nM
[5]
  EC50: 290 nM
